Assay results: the supplement of paper PMC10567573

B1: HESX1 (parent)
chain: HVPNPPSGISFPSVVDHPMPEERA

Variants of: B1
Experiment: protein stability index of a GFP-peptide fusion (GPS, HEK-293T) (PSI 1-6); higher = more stable
Details: c terminus: a fixed tail appended
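Note: lentivirally expressed fusions sorted by FACS into six bins by GFP to DsRed ratio, PSI derived from sequencing read proportions per bin multiplied by bin number.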

Variant	protein stability index
HVPNPPSGISFPSVVLHPMPEERA	2.36
HVPNPPSGISFPSVVMHPMPEERA	2.19
HVPNPPSGISFPSVVNHPMPEERA	2
HVPNPPSGISFPSVVPHPMPEERA	2.37
HVPNPPSGISFPSVVQHPMPEERA	2.51
HVPNPPSGISFPSVVRHPMPEERA	2.51
HVPNPPSGISFPSVVSHPMPEERA	2.22
HVPNPPSGISFPSVVTHPMPEERA	2.03
HVPNPPSGISFPSVVVHPMPEERA	2.35
HVPNPPSGISFPSVVWHPMPEERA	1.57
HVPNPPSGISFPSVVYHPMPEERA	2.57
HVPNPPSGISFPSVVDAPMPEERA	3.2
HVPNPPSGISFPSVVDCPMPEERA	2.39
HVPNPPSGISFPSVVDDPMPEERA	3.28
HVPNPPSGISFPSVVDEPMPEERA	3.29
HVPNPPSGISFPSVVDFPMPEERA	2.15
HVPNPPSGISFPSVVDGPMPEERA	2.82
HVPNPPSGISFPSVVDIPMPEERA	2.66
HVPNPPSGISFPSVVDKPMPEERA	2.24
HVPNPPSGISFPSVVDLPMPEERA	2.39
HVPNPPSGISFPSVVDMPMPEERA	2.52
HVPNPPSGISFPSVVDNPMPEERA	2.8
HVPNPPSGISFPSVVDPPMPEERA	2.11
HVPNPPSGISFPSVVDQPMPEERA	2.68

Variant	protein stability index
HVPNPPSGISFPSVVDRPMPEERA	2.77
HVPNPPSGISFPSVVDSPMPEERA	3.01
HVPNPPSGISFPSVVDTPMPEERA	2.94
HVPNPPSGISFPSVVDVPMPEERA	2.57
HVPNPPSGISFPSVVDWPMPEERA	2.19
HVPNPPSGISFPSVVDYPMPEERA	2.52
HVPNPPSGISFPSVVDHAMPEERA	2.61
HVPNPPSGISFPSVVDHCMPEERA	2.25
HVPNPPSGISFPSVVDHDMPEERA	2.78
HVPNPPSGISFPSVVDHEMPEERA	2.85
HVPNPPSGISFPSVVDHFMPEERA	2.42
HVPNPPSGISFPSVVDHGMPEERA	2.43
HVPNPPSGISFPSVVDHHMPEERA	2.49
HVPNPPSGISFPSVVDHIMPEERA	2.36
HVPNPPSGISFPSVVDHKMPEERA	2.7
HVPNPPSGISFPSVVDHLMPEERA	2.56
HVPNPPSGISFPSVVDHMMPEERA	2.49
HVPNPPSGISFPSVVDHNMPEERA	2.62
HVPNPPSGISFPSVVDHQMPEERA	2.61
HVPNPPSGISFPSVVDHRMPEERA	2.79
HVPNPPSGISFPSVVDHSMPEERA	2.61
HVPNPPSGISFPSVVDHTMPEERA	2.51
HVPNPPSGISFPSVVDHVMPEERA	2.64
HVPNPPSGISFPSVVDHWMPEERA	2.28

Variant	protein stability index
HVPNPPSGISFPSVVDHYMPEERA	2.48
HVPNPPSGISFPSVVDHPAPEERA	2.99
HVPNPPSGISFPSVVDHPCPEERA	2.37
HVPNPPSGISFPSVVDHPDPEERA	2.94
HVPNPPSGISFPSVVDHPEPEERA	3.69
HVPNPPSGISFPSVVDHPFPEERA	2.65
HVPNPPSGISFPSVVDHPGPEERA	2.44
HVPNPPSGISFPSVVDHPHPEERA	3.03
HVPNPPSGISFPSVVDHPIPEERA	2.59
HVPNPPSGISFPSVVDHPKPEERA	3.31
HVPNPPSGISFPSVVDHPLPEERA	2.39
HVPNPPSGISFPSVVDHPNPEERA	2.97
HVPNPPSGISFPSVVDHPQPEERA	3.17
HVPNPPSGISFPSVVDHPRPEERA	2.83
HVPNPPSGISFPSVVDHPSPEERA	3.18
HVPNPPSGISFPSVVDHPTPEERA	2.59
HVPNPPSGISFPSVVDHPVPEERA	2.44
HVPNPPSGISFPSVVDHPWPEERA	2.29
HVPNPPSGISFPSVVDHPYPEERA	2.27
HVPNPPSGISFPSVVDHPMAEERA	2.74
HVPNPPSGISFPSVVDHPMCEERA	2.45
HVPNPPSGISFPSVVDHPMDEERA	2.98
HVPNPPSGISFPSVVDHPMEEERA	2.48
HVPNPPSGISFPSVVDHPMFEERA	2.21

Variant	protein stability index
HVPNPPSGISFPSVVDHPMGEERA	2.61
HVPNPPSGISFPSVVDHPMHEERA	2.65
HVPNPPSGISFPSVVDHPMIEERA	2.49
HVPNPPSGISFPSVVDHPMKEERA	2.54
HVPNPPSGISFPSVVDHPMLEERA	2.48
HVPNPPSGISFPSVVDHPMMEERA	2.79
HVPNPPSGISFPSVVDHPMNEERA	3.28
HVPNPPSGISFPSVVDHPMQEERA	2.78
HVPNPPSGISFPSVVDHPMREERA	2.88
HVPNPPSGISFPSVVDHPMSEERA	2.82
HVPNPPSGISFPSVVDHPMTEERA	2.91
HVPNPPSGISFPSVVDHPMVEERA	2.55
HVPNPPSGISFPSVVDHPMWEERA	2.1
HVPNPPSGISFPSVVDHPMYEERA	2.24
HVPNPPSGISFPSVVDHPMPAERA	2.49
HVPNPPSGISFPSVVDHPMPCERA	2.71
HVPNPPSGISFPSVVDHPMPDERA	2.85
HVPNPPSGISFPSVVDHPMPFERA	1.96
HVPNPPSGISFPSVVDHPMPGERA	2.08
HVPNPPSGISFPSVVDHPMPHERA	2.45
HVPNPPSGISFPSVVDHPMPIERA	1.95
HVPNPPSGISFPSVVDHPMPKERA	1.89
